In article doi:10.1101/713677:

Target: zip (positive control of the BACTH system)
Assay: two-hybrid

β-galactosidase activity: 63300 Miller units
Substance: zip (positive control of the BACTH system) (domain or fragment)
